Data on seven sequences can be found in the supplement of paper PMC5998384.

For data set [1], the system named is HeLa Kyoto. The experiment in a line: solubility change mitosis vs G1/S (difference of NP-40 vs SDS log2 ratios) (log2 ratio difference); higher = more soluble in mitosis.
The test system of data set [2] is HeLa Kyoto. The experiment in a line: solubility in G1/S (NP-40 vs SDS abundance) (log2 ratio); higher = more soluble. The following applies: cell cycle stage: G1/S.
Data set [3] has as its system HeLa Kyoto. As to the kind of experiment: melting temperature (median over replicates), in situ; higher = more thermally stable.
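Wherever melting temperature (median over replicates), in situ is given: HeLa Kyoto cells synchronized by double thymidine or nocodazole block, proteins quantified by TMT10plex mass spectrometry, three independent biological replicates.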
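Wherever solubility change mitosis vs G1/S (difference of NP-40 vs SDS log2 ratios) is given: synchronized HeLa Kyoto cells (double thymidine block for G1/S, nocodazole release for mitosis), protein amounts in NP-40 versus SDS lysates quantified by mass spectrometry, three biological replicates.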
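Wherever solubility in G1/S (NP-40 vs SDS abundance) is given: HeLa Kyoto cells arrested at G1/S by double thymidine block, proteins quantified by TMT10plex mass spectrometry in mild NP-40 versus SDS extracts, three biological replicates.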

As for “MLPGLRRLLQAPASACLLLMLLALPLAAPSCPMLCTCYSSPPTVSCQANNFSSVPLSLPPSTQRLFLQNNLIRTLRPGTFGSNLLTLWLFSNNLSTIYPGTFRHLQALEELDLGDNRHLRSLEPDTFQGLERLQSLHLYRCQLSSLPGNIFRGLVSLQYLYLQENSLLHLQDDLFADLANLSHLFLHGNRLRLLTEHVFRGLGSLDRLLLHGNRLQGVHRAAFRGLSRLTILYLFNNSLASLPGEALADLPSLEFLRLNANPWACDCRARPLWAWFQRARVSSSDVTCATPPERQGRDLRALREADFQACPPAAPTRPGSRARGNSSSNHLYGVAEAGAPPADPSTLYRDLPAEDSRGRQGGDAPTEDDYWGGYGGEDQRGEQMCPGAACQAPPDSRGPALSAGLPSPLLCLLLLVPHHL [RTN4RL2]”, the “solubility change mitosis (log2)” value in the data set with HeLa Kyoto [1] was -0.00838. The “solubility in G1/S (log2)” value with HeLa Kyoto [2] stood at 0.0566. Besides, the melting temperature in the data set with HeLa Kyoto [3] (cell cycle stage: G1/S) turned out to be 54 °C; in the data set with HeLa Kyoto [3] (cell cycle stage: mitosis) it was 53.7 °C.

Turning to “MNGEEEFFDAVTGFDSDNSSGEFSEANQKVTGMIDLDTSKNNRIGKTGERPSQENGIQKHRTSLPAPMFSRSDFSVWTILKKCVGLELSKITMPIAFNEPLSFLQRITEYMEHVYLIHRASCQPQPLERMQSVAAFAVSAVASQWERTGKPFNPLLGETYELIREDLGFRFISEQVSHHPPISAFHSEGLNHDFLFHGSIYPKLKFWGKSVEAEPRGTITLELLKHNEAYTWTNPTCCVHNVIIGKLWIEQYGTVEILNHRTGHKCVLHFKPCGLFGKELHKVEGHIQDKNKKKLFMIYGKWTECLWGIDPVSYESFKKQERRGDHLRKAKLDEDSGKADSDVADDVPVAQETVQVIPGSKLLWRINTRPPNSAQMYNFTSFTVSLNELETGMEKTLPPTDCRLRPDIRGMENGNMDLASQEKERLEEKQREARRERAKEEAEWQTRWFYPGNNPYTGTPDWLYAGDYFERNFSDCPDIY [OSBPL2]”, the “solubility change mitosis (log2)” value with HeLa Kyoto [1] is -0.108. The “solubility in G1/S (log2)” value in the data set on HeLa Kyoto [2] is -0.0421. The melting temperature was determined as 48.1 °C in the data set with HeLa Kyoto [3] (cell cycle stage: G1/S) and 48.6 °C in the data set on HeLa Kyoto [3] (cell cycle stage: mitosis).

As for “MNSVRAANRRPRRVSRPRPVQQQQQQPPQQPPPQPPQQQPPQQQPPPPPQQQQQQQPPPPPPPPPPLPQERNNVGERDDDVPADMVAEESGPGAQNSPYQLRRKTLLPKRTACPTKNSMEGASTSTTENFGHRAKRARVSGKSQDLSAAPAEQYLQEKLPDEVVLKIFSYLLEQDLCRAACVCKRFSELANDPILWKRLYMEVFEYTRPMMHPEPGKFYQINPEEYEHPNPWKESFQQLYKGAHVKPGFAEHFYSNPARYKGRENMLYYDTIEDALGGVQEAHFDGLIFVHSGIYTDEWIYIESPITMIGAAPGKVADKVIIENTRDSTFVFMEGSEDAYVGYMTIRFNPDDKSAQHHNAHHCLEITVNCSPIIDHCIIRSTCTVGSAVCVSGQGACPTIKHCNISDCENVGLYITDHAQGIYEDNEISNNALAGIWVKNHGNPIIRRNHIHHGRDVGVFTFDHGMGYFESCNIHRNRIAGFEVKAYANPTVVRCEIHHGQTGGIYVHEKGRGQFIENKIYANNFAGVWITSNSDPTIRGNSIFNGNQGGVYIFGDGRGLIEGNDIYGNALAGIQIRTNSCPIVRHNKIHDGQHGGIYVHEKGQGVIEENEVYSNTLAGVWVTTGSTPVLRRNRIHSGKQVGVYFYDNGHGVLEDNDIYNHMYSGVQIRTGSNPKIRRNKIWGGQNGGILVYNSGLGCIEDNEIFDNAMAGVWIKTDSNPTLRRNKIHDGRDGGICIFNGGRGLLEENDIFRNAQAGVLISTNSHPILRKNRIFDGFAAGIEITNHATATLEGNQIFNNRFGGLFLASGVNVTMKDNKIMNNQDAIEKAVSRGQCLYKISSYTSYPMHDFYRCHTCNTTDRNAICVNCIKKCHQGHDVEFIRHDRFFCDCGAGTLSNPCTLAGEPTHDTDTLYDSAPPIESNTLQHN [FBXO11]”, the “solubility change mitosis (log2)” value in the data set with HeLa Kyoto [1] is 0.764. For the same sequence, the “solubility in G1/S (log2)” value in the data set on HeLa Kyoto [2] was -1.25. Moreover, the melting temperature in the data set on HeLa Kyoto [3] (cell cycle stage: mitosis) is 52.6 °C.

For “MPVVWPTLLDLSRDECKRILRKLELEAYAGVISALRAQGDLTKEKKDLLGELSKVLSISTERHRAEVRRAVNDERLTTIAHNMSGPNSSSEWSIEGRRLVPLMPRLVPQTAFTVTANAVANAAIQHNASLPVPAETGSKEVVCYSYTSTTSTPTSTPVPSGSIATVKSPRPASPASNVVVLPSGSTVYVKSVSCSDEDEKPRKRRRTNSSSSSPVVLKEVPKAVVPVSKTITVPVSGSPKMSNIMQSIANSLPPHMSPVKITFTKPSTQTTNTTTQKVIIVTTSPSSTFVPNILSKSHNYAAVTKLVPTSVIASTTQKPPVVITASQSSLVSNSSSGSSSSTPSPIPNTVAVTAVVSSTPSVVMSTVAQGVSTSAIKMASTRLPSPKSLVSAPTQILAQFPKQHQQSPKQQLYQVQQQTQQQVAQPSPVSHQQQPQQSPLPPGIKPTIQIKQESGVKIITQQVQPSKILPKPVTATLPTSSNSPIMVVSSNGAIMTTKLVTTPTGTQATYTRPTVSPSIGRMAATPGAATYVKTTSGSIITVVPKSLATLGGKIISSNIVSGTTTKITTIPMTSKPNVIVVQKTTGKGTTIQGLPGKNVVTTLLNAGGEKTIQTVPTGAKPAILTATRPITKMIVTQPKGIGSTVQPAAKIIPTKIVYGQQGKTQVLIKPKPVTFQATVVSEQTRQLVTETLQQASRVAEAGNSSIQEGKEEPQNYTDSSSSSTESSQSSQDSQPVVHVIASRRQDWSEHEIAMETSPTIIYQDVSSESQSATSTIKALLELQQTTVKEKLESKPRQPTIDLSQMAVPIQMTQEKRHSPESPSIAVVESELVAEYITTERTDEGTEVAFPLLVSHRSQPQQPSQPQRTLLQHVAQSQTATQTSVVVKSIPASSPGAITHIMQQALSSHTAFTKHSEELGTEEGEVEEMDTLDPQTGLFYRSALTQSQSAKQQKLSQPPLEQTQLQVKTLQCFQTKQKQTIHLQADQLQHKLPQMPQLSIRHQKLTPLQQEQAQPKPDVQHTQHPMVAKDRQLPTLMAQPPQTVVQVLAVKTTQQLPKLQQAPNQPKIYVQPQTPQSQMSLPASSEKQTASQVEQPIITQGSSVTKITFEGRQPPTVTKITGGSSVPKLTSPVTSISPIQASEKTAVSDILKMSLMEAQIDTNVEHMIVDPPKKALATSMLTGEAGSLPSTHMVVAGMANSTPQQQKCRESCSSPSTVGSSLTTRKIDPPAVPATGQFMRIQNVGQKKAEESPAEIIIQAIPQYAIPCHSSSNVVVEPSGLLELNNFTSQQLDDEETAMEQDIDSSTEDGTEPSPSQSSAERS [EMSY]”, in the data set on HeLa Kyoto [1], the “solubility change mitosis (log2)” value is 0.0269. The “solubility in G1/S (log2)” value in the data set on HeLa Kyoto [2] is -0.0948. Further, the figures for the melting temperature in the data set on HeLa Kyoto [3] (cell cycle stage: G1/S) and in the data set with HeLa Kyoto [3] (cell cycle stage: mitosis) were 44.6 °C and 50.6 °C, respectively.

With “MQTSSSRSVHLSEWQKNYFAITSGICTGPKADAYRAQILRIQYAWANSEISQVCATKLFKKYAEKYSAIIDSDNVESGLNNYAENILTLAGSQQTDSDKWQSGLSINNVFKMSSVQKMMQAGKKFKDSLLEPALASVVIHKEATVFDLPKFSVCGSSQESDSLPNSAHDRDRTQDFPESNRLKLLQNAQPPMVTNTARTCPTFSAPVGESATAKFHVTPLFGNVKKENHSSAKENIGLNVFLSNQSCFPAACENPQRKSFYGSGTIDALSNPILNKACSKTEDNGPKEDSSLPTFKTAKEQLWVDQQKKYHQPQRASGSSYGGVKKSLGASRSRGILGKFVPPIPKQDGGEQNGGMQCKPYGAGPTEPAHPVDERLKNLEPKMIELIMNEIMDHGPPVNWEDIAGVEFAKATIKEIVVWPMLRPDIFTGLRGPPKGILLFGPPGTGKTLIGKCIASQSGATFFSISASSLTSKWVGEGEKMVRALFAVARCQQPAVIFIDEIDSLLSQRGDGEHESSRRIKTEFLVQLDGATTSSEDRILVVGATNRPQEIDEAARRRLVKRLYIPLPEASARKQIVINLMSKEQCCLSEEEIEQIVQQSDAFSGADMTQLCREASLGPIRSLQTADIATITPDQVRPIAYIDFENAFRTVRPSVSPKDLELYENWNKTFGCGK [FIGNL1]”, the “solubility change mitosis (log2)” value in the data set on HeLa Kyoto [1] was -0.219. Besides, the “solubility in G1/S (log2)” value in the data set with HeLa Kyoto [2] was -0.0197. This sequence registered a melting temperature with HeLa Kyoto [3] (cell cycle stage: mitosis) of 48.6 °C.

For “MRRFKRKHLTAIDCQHLARSHLAVTQPFGQRWTNRDPNHGLYPKPRTKRGSRGQGSQRCIPEFFLAGKQPCTNDMAKSNSVGQDSCQDSEGDMIFPAESSCALPQEGSAGPGSPGSAPPSRKRSWSSEEESNQATGTSRWDGVSKKAPRHHLSVPCTRPREARQEAEDSTSRLSAESGETDQDAGDVGPDPIPDSYYGLLGTLPCQEALSHICSLPSEVLRHVFAFLPVEDLYWNLSLVCHLWREIISDPLFIPWKKLYHRYLMNEEQAVSKVDGILSNCGIEKESDLCVLNLIRYTATTKCSPSVDPERVLWSLRDHPLLPEAEACVRQHLPDLYAAAGGVNIWALVAAVVLLSSSVNDIQRLLFCLRRPSSTVTMPDVTETLYCIAVLLYAMREKGINISNRIHYNIFYCLYLQENSCTQATKVKEEPSVWPGKKTIQLTHEQQLILNHKMEPLQVVKIMAFAGTGKTSTLVKYAEKWSQSRFLYVTFNKSIAKQAERVFPSNVICKTFHSMAYGHIGRKYQSKKKLNLFKLTPFMVNSVLAEGKGGFIRAKLVCKTLENFFASADEELTIDHVPIWCKNSQGQRVMVEQSEKLNGVLEASRLWDNMRKLGECTEEAHQMTHDGYLKLWQLSKPSLASFDAIFVDEAQDCTPAIMNIVLSQPCGKIFVGDPHQQIYTFRGAVNALFTVPHTHVFYLTQSFRFGVEIAYVGATILDVCKRVRKKTLVGGNHQSGIRGDAKGQVALLSRTNANVFDEAVRVTEGEFPSRIHLIGGIKSFGLDRIIDIWILLQPEEERRKQNLVIKDKFIRRWVHKEGFSGFKRYVTAAEDKELEAKIAVVEKYNIRIPELVQRIEKCHIEDLDFAEYILGTVHKAKGLEFDTVHVLDDFVKVPCARHNLPQLPHFRVESFSEDEWNLLYVAVTRAKKRLIMTKSLENILTLAGEYFLQAELTSNVLKTGVVRCCVGQCNNAIPVDTVLTMKKLPITYSNRKENKGGYLCHSCAEQRIGPLAFLTASPEQVRAMERTVENIVLPRHEALLFLVF [FBXO18]”, the “solubility change mitosis (log2)” value with HeLa Kyoto [1] is -0.0335. Further, the “solubility in G1/S (log2)” value in the data set with HeLa Kyoto [2] is -0.21. The melting temperature with HeLa Kyoto [3] (cell cycle stage: G1/S) turned out to be 51.7 °C; with HeLa Kyoto [3] (cell cycle stage: mitosis), 52.4 °C.

Regarding “MRRYLRVVVLCVACGFCSLLYAFSQLAVSLEEGTGGGGGKPQAAVASWLAGGGRGAVRGAGVAGPAAHPGVSDRCKDFSLCYWNPYWMLPSDVCGMNCFWEAAFRYSLKIQPVEKMHLAVVACGERLEETMTMLKSAIIFSIKPLQFHIFAEDQLHHSFKGRLDNWSFLQTFNYTLYPITFPSENAAEWKKLFKPCASQRLFLPLILKEVDSLLYVDTDILFLRPVDDIWSLLKKFNSTQIAAMAPEHEEPRIGWYNRFARHPYYGKTGVNSGVMLMNMTRMRRKYFKNDMTTVRLQWGDILMPLLKKYKLNITWGDQDLLNIVFFHNPESLFVFPCQWNYRPDHCIYGSNCQEAEEGGIFILHGNRGVYHDDKQPAFRAVYEALRNCSFEDDNIRSLLKPLELELQKTVHTYCGKIYKIFIKQLAKSVRDRYARSPKEK [GXYLT1]”, the “solubility change mitosis (log2)” value in the data set on HeLa Kyoto [1] was 0.0753. The “solubility in G1/S (log2)” value in the data set on HeLa Kyoto [2] stood at 0.171. This sequence registered a melting temperature in the data set with HeLa Kyoto [3] (cell cycle stage: G1/S) of 53.9 °C.
